Experimental data reported in paper PMC8524982.

System: T1, His6-OsnR (Corynebacterium glutamicum), ORF:93dbb295
T1 sequence: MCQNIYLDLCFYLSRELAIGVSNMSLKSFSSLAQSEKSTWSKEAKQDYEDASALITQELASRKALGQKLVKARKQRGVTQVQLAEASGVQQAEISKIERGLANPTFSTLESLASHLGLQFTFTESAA
Test: EMSA
Conditions: 20 mM HEPES pH 7.4, 2.5 mM MgCl2, 75 mM KCl, 0.5 mM EDTA, 2 mM DTT, 10% glycerol, 1 ug poly d(I-C), 100 ng/ul BSA; 30 ng DNA in 20 ul, 30 C, 30 min; 5% PAGE …

Sequence | binding
CAAGCGTGGGGATTCCTGGCTCGATGCTCATGCTTCACTTCCTTATCTTTTGAAACCATGTGCAGCTGTTTTTCTCTTCATTTTTCTCTTCATACACTGACACAGTTCAACTCAATCAAATAGTCAACTATGCAAGGTAGTCGACTATGTGGCATAGTCGCCATAGTTGAGTTTTATTCATGGCTTTTAGCTAGGCGACTTTAGTTGAGGGCTTTTAGTTGAGGGCTTCCCAGCAGGGATGGTTAAGGAGAATTCAGTGAACCAACAGAGTAAAAAGTGGCTCGTACCGACACTGGT (double strand) [cg0026 promoter] | binds
TTTGGTGGTGGGCAATGCTGCGACCATCTTTATGAATCTCATTGGCTGCCGGGAAGGCCGCGACCCCTTGCTGCTCATCGCGGTTCTCACGTTCCCGCTGTATTGGCTGCTCATGAGCATTGCAGCGTTGAAAGGCACGTGGCAATTGATCACGCGACCATCCTATTGGGAGAAAACTGCCCACGGATTGGAGGCGTAAGCGGTGCCCATCGTCAAACCAATGCCGGCACTG (double strand) [cg0165 promoter] | binds
ACCGCTTCTAAGCACCCAACTCGCCAAAACTAGGACAACAGGTCGCCGCAGACAGTCGACCGCTTAAAACGCCACACAGCACCCCACTTCACATAACCCCAAGTCGGAAACAAAAGCCCCCAACCTGCACAGATGTCAACTATTTCAACCAGCCAGAAACTATCTCCAAAAGCTAATAAAACCCTTGCACTGACAAATAAGGCGACCTACCATGACTCTGTTTCCAACACATAAAAAGGATAAAAAATGTCACTTTCAGTCGTCGAGGCG (double strand) [cg0404 promoter] | no binding
GGCTGCTCAGACATAAGATGTGCTCCTAATTTAGAAATCGGATGTGGGCTGGACTGGGAAGGCAACTAACTGGTGCTTTGTCGTCCACGTATCTCAACGCATATGACTATAAAAAGCTTCCCAAGTACCAGTTCAGTCTATAATTCGCGGTGTTATTGAGATGGTTTGAGGCTGGAAAGCTTCGATTGCAGCCAGTTGTTGAGTACTTCAGAGGCGTGATCTCTGGCGGGTTTCCTTGAGAGGAAAATATCGTGGCGAGCGTTGTCGATGAT (double strand) [mtr promoter] | no binding
GGCGAGGCCACGTTCAATCTTGCTTATTTCTGCCTGTTGGACTCCAGAAGCTTCAGCAAGTTGAACTTGGGTGACTCCTCGTTGTTTCCGAGCCTTGACTAGTTTTTGGCCAAGAGCTTTTCGTGAGGCGAGTTCTTGAGTGATTAGCGCGGAAGCGTCCTCGTAATCTTG (double strand) [osnR ORF (+110 to +286)] | no binding
